The values that follow come from FireProtDB (doi:10.1006/jmbi.2000.4053).

Where “and” joins values, the source holds several entries; their conditions need not be identical. Equal entries are not always repeated.

The conditions of this data set: Homo sapiens, pH 5, 25 °C, structure 1TEN.
Setting [1] is: GdnHCl, Fluorescence, Sodium acetate 50mM, transition: 2.

Turning to Tenascin, P24821 I809A, under setting [1], the “ddG of mutation (higher = less stable)” value was determined as 2.86 kcal/mol, the denaturant m value worked out at 5.17 kcal/mol/M and the “denaturant midpoint (higher = more stable)” value (from here on “denaturant midpoint”) was 1.3 M. Moreover, where the note is “Urea, CD, Sodium acetate 50 mM”, the “ddG of mutation (higher = less stable)” value came to 2.86 kcal/mol, the denaturant m value turned out to be 1.3 kcal/mol/M and the “denaturant midpoint” value was 2.98 M.

In the case of Tenascin, P24821 I809V, under setting [1], the “ddG of mutation (higher = less stable)” value came to 0.18 kcal/mol, the denaturant m value turned out to be 4.21 kcal/mol/M and the “denaturant midpoint” value is 1.2 M. Besides, for the setting “Urea, CD, Sodium acetate 50 mM”, the “ddG of mutation (higher = less stable)” value is 0.18 kcal/mol, the denaturant m value amounted to 1.3 kcal/mol/M and the “denaturant midpoint” value stood at 5.17 M.

For Tenascin, P24821 I821A, under setting [1], the “ddG of mutation (higher = less stable)” value worked out at 3.67 kcal/mol, the denaturant m value turned out to be 5.13 kcal/mol/M and the “denaturant midpoint” value came to 1.2 M. Also, where the note is “Urea, CD, Sodium acetate 50 mM”, the “ddG of mutation (higher = less stable)” value was determined as 3.67 kcal/mol, the denaturant m value came out at 1.3 kcal/mol/M and the “denaturant midpoint” value turned out to be 2.31 M.

Turning to Tenascin, P24821 I821V, under setting [1], the “ddG of mutation (higher = less stable)” value is 0.23 kcal/mol, the denaturant m value stood at 3.9 kcal/mol/M and the “denaturant midpoint” value amounted to 1 M. For the setting “Urea, CD, Sodium acetate 50 mM”, the “ddG of mutation (higher = less stable)” value was found to be 0.23 kcal/mol, the denaturant m value is 1.2 kcal/mol/M and the “denaturant midpoint” value worked out at 5.13 M.

Consider Tenascin, P24821 I830A, for which, under setting [1], the “ddG of mutation (higher = less stable)” value is 1.38 kcal/mol, the denaturant m value was 5.06 kcal/mol/M and the “denaturant midpoint” value was found to be 1.2 M. Moreover, for the setting “Urea, CD, Sodium acetate 50 mM”, the “ddG of mutation (higher = less stable)” value was found to be 1.38 kcal/mol, the denaturant m value was 1.1 kcal/mol/M and the “denaturant midpoint” value came to 4.19 M.

In the case of Tenascin, P24821 I830V, under setting [1], the “ddG of mutation (higher = less stable)” value stood at 0.32 kcal/mol, the denaturant m value is 2.63 kcal/mol/M and the “denaturant midpoint” value was found to be 1.2 M. Also, under “Urea, CD, Sodium acetate 50 mM”, the “ddG of mutation (higher = less stable)” value turned out to be 0.32 kcal/mol, the denaturant m value was 1.2 kcal/mol/M and the “denaturant midpoint” value worked out at 5.06 M.

Take Tenascin, P24821 I833A: under setting [1], the “ddG of mutation (higher = less stable)” value is 3.28 kcal/mol, the denaturant m value amounted to 4.91 kcal/mol/M and the “denaturant midpoint” value stood at 1.1 M. Further, where the note is “Urea, CD, Sodium acetate 50 mM”, the “ddG of mutation (higher = less stable)” value worked out at 3.28 kcal/mol, the denaturant m value came to 1.2 kcal/mol/M and the “denaturant midpoint” value stood at 2.63 M.

On to Tenascin, P24821 I833V, for which, under setting [1], the “ddG of mutation (higher = less stable)” value is 0.5 kcal/mol, the denaturant m value came out at 1.8 kcal/mol/M and the “denaturant midpoint” value was determined as 1.4 M. Further, where the note is “Urea, CD, Sodium acetate 50 mM”, the “ddG of mutation (higher = less stable)” value turned out to be 0.5 kcal/mol, the denaturant m value came to 1.1 kcal/mol/M and the “denaturant midpoint” value turned out to be 4.91 M.

In the case of Tenascin, P24821 I849A, under setting [1], the “ddG of mutation (higher = less stable)” value is 2.19 kcal/mol, the denaturant m value came out at 2.87 kcal/mol/M and the “denaturant midpoint” value is 1.1 M. Under “Urea, CD, Sodium acetate 50 mM”, the “ddG of mutation (higher = less stable)” value was determined as 2.19 kcal/mol, the denaturant m value was 1.1 kcal/mol/M and the “denaturant midpoint” value is 3.52 M.

Consider Tenascin, P24821 I860A, for which, where the note is “Urea, CD, Sodium acetate 50 mM”, the “ddG of mutation (higher = less stable)” value was found to be 2.06 kcal/mol, the denaturant m value turned out to be 1.3 kcal/mol/M and the “denaturant midpoint” value came out at 3.63 M.

For the substance Tenascin, P24821 I860V, under setting [1], the “ddG of mutation (higher = less stable)” value came to 0.83 kcal/mol, the denaturant m value came out at 1.86 kcal/mol/M and the “denaturant midpoint” value is 1.5 M. Also, for the setting “Urea, CD, Sodium acetate 50 mM”, the “ddG of mutation (higher = less stable)” value is 0.83 kcal/mol, the denaturant m value came out at 1.2 kcal/mol/M and the “denaturant midpoint” value was found to be 4.64 M.

Take Tenascin, P24821 L835A: where the note is “Urea, CD, Sodium acetate 50 mM”, the “ddG of mutation (higher = less stable)” value was 4.29 kcal/mol, the denaturant m value stood at 1.4 kcal/mol/M and the “denaturant midpoint” value came to 1.8 M.

With Tenascin, P24821 L851A, under setting [1], the “ddG of mutation (higher = less stable)” value turned out to be 2.99 kcal/mol, the denaturant m value turned out to be 1.93 kcal/mol/M and the “denaturant midpoint” value stood at 1.3 M. Besides, under “Urea, CD, Sodium acetate 50 mM”, the “ddG of mutation (higher = less stable)” value amounted to 2.99 kcal/mol, the denaturant m value is 1.3 kcal/mol/M and the “denaturant midpoint” value is 2.87 M.

Turning to Tenascin, P24821 L863A, under setting [1], the “ddG of mutation (higher = less stable)” value was found to be 4.22 kcal/mol, the denaturant m value is 4.55 kcal/mol/M and the “denaturant midpoint” value was found to be 1.2 M. For the setting “Urea, CD, Sodium acetate 50 mM”, the “ddG of mutation (higher = less stable)” value was 4.22 kcal/mol, the denaturant m value came to 1.5 kcal/mol/M and the “denaturant midpoint” value was 1.86 M.

Regarding Tenascin, P24821 L873A, for the setting “Urea, CD, Sodium acetate 50 mM”, the “ddG of mutation (higher = less stable)” value was 3.06 kcal/mol, the denaturant m value stood at 1.4 kcal/mol/M and the “denaturant midpoint” value is 2.81 M.

Regarding Tenascin, P24821 P806A, under setting [1], the “ddG of mutation (higher = less stable)” value turned out to be 2.74 kcal/mol, the denaturant m value came to 2.98 kcal/mol/M and the “denaturant midpoint” value worked out at 1.3 M. For the setting “Urea, CD, Sodium acetate 50 mM”, the “ddG of mutation (higher = less stable)” value worked out at 2.74 kcal/mol, the denaturant m value turned out to be 1.1 kcal/mol/M and the “denaturant midpoint” value was 3.07 M.

Regarding Tenascin, P24821 P826A, where the note is “Urea, CD, Sodium acetate 50 mM”, the “ddG of mutation (higher = less stable)” value came out at 1.73 kcal/mol, the denaturant m value worked out at 1 kcal/mol/M and the “denaturant midpoint” value turned out to be 3.9 M.

Turning to Tenascin, P24821 P865A, under setting [1], the “ddG of mutation (higher = less stable)” value came out at 0.93 kcal/mol, the denaturant m value stood at 4.32 kcal/mol/M and the “denaturant midpoint” value turned out to be 1.2 M. Also, where the note is “Urea, CD, Sodium acetate 50 mM”, the “ddG of mutation (higher = less stable)” value was found to be 0.93 kcal/mol, the denaturant m value was determined as 1.2 kcal/mol/M and the “denaturant midpoint” value was found to be 4.55 M.

Regarding Tenascin, P24821 P884A, under “Urea, CD, Sodium acetate 50 mM”, the “ddG of mutation (higher = less stable)” value came out at 0.11 kcal/mol, the denaturant m value was determined as 1.1 kcal/mol/M and the “denaturant midpoint” value came out at 5.23 M.

In the case of Tenascin, P24821 S875A, for the setting “Urea, CD, Sodium acetate 50 mM”, the “ddG of mutation (higher = less stable)” value was -0.04 kcal/mol, the denaturant m value stood at 1.1 kcal/mol/M and the “denaturant midpoint” value came to 5.36 M.

In the case of Tenascin, P24821 S882A, under setting [1], the “ddG of mutation (higher = less stable)” value worked out at 2.82 kcal/mol, the denaturant m value came out at 5.23 kcal/mol/M and the “denaturant midpoint” value came out at 1.1 M.

Consider Tenascin, P24821 T867S, for which, under “Urea, CD, Sodium acetate 50 mM”, the “ddG of mutation (higher = less stable)” value was found to be 1.22 kcal/mol, the denaturant m value worked out at 1.2 kcal/mol/M and the “denaturant midpoint” value is 4.32 M.

With Tenascin, P24821 V811A, under setting [1], the “ddG of mutation (higher = less stable)” value worked out at 1.36 kcal/mol, the denaturant m value is 3.03 kcal/mol/M and the “denaturant midpoint” value is 1.3 M. Where the note is “Urea, CD, Sodium acetate 50 mM”, the “ddG of mutation (higher = less stable)” value was 1.36 kcal/mol, the denaturant m value turned out to be 1.2 kcal/mol/M and the “denaturant midpoint” value was 4.21 M.

Turning to Tenascin, P24821 V871A, for the setting “Urea, CD, Sodium acetate 50 mM”, the “ddG of mutation (higher = less stable)” value was determined as 2.81 kcal/mol, the denaturant m value was determined as 1.3 kcal/mol/M and the “denaturant midpoint” value was 3.01 M.

For Tenascin, P24821 Y837A, for the setting “Urea, CD, Sodium acetate 50 mM”, the “ddG of mutation (higher = less stable)” value was 4.22 kcal/mol, the denaturant m value was 1.5 kcal/mol/M and the “denaturant midpoint” value was determined as 1.86 M.

For the substance Tenascin, P24821 Y858A, under setting [1], the “ddG of mutation (higher = less stable)” value was found to be 1.38 kcal/mol and the “denaturant midpoint” value came out at 1.3 M. Also, for the setting “Urea, CD, Sodium acetate 50 mM”, the “ddG of mutation (higher = less stable)” value came out at 1.38 kcal/mol, the denaturant m value is 1.3 kcal/mol/M and the “denaturant midpoint” value came to 4.19 M.

On to Tenascin, P24821 Y858G, for which, under setting [1], the denaturant m value was determined as 4.19 kcal/mol/M and the “denaturant midpoint” value turned out to be 1.3 M. Also, under “Urea, CD, Sodium acetate 50 mM”, the “ddG of mutation (higher = less stable)” value is 4.14 kcal/mol and 2.76 kcal/mol; the denaturant m value stood at 1.3 kcal/mol/M; the “denaturant midpoint” value was determined as 1.93 M.

Regarding Tenascin, P24821 Y869F, under setting [1], the “ddG of mutation (higher = less stable)” value came out at 3.13 kcal/mol, the denaturant m value came to 3.01 kcal/mol/M and the “denaturant midpoint” value turned out to be 1.3 M. Also, for the setting “Urea, CD, Sodium acetate 50 mM”, the “ddG of mutation (higher = less stable)” value came to 3.13 kcal/mol, the denaturant m value came to 1.3 kcal/mol/M and the “denaturant midpoint” value was determined as 2.75 M.
